The values below come from publication PMC7078210.

Positions count from the first letter of the chain named.

Series [1] deals with NtMOC1 (N108-S275, I112V/Q162K/E235Q/E239Q) (Nicotiana tabacum). Nature of the series: crystal structure; HJ-free (apo) MOC1, 10 mg/ml with 1 mM MgCl2, sitting-drop vapor diffusion at 18 °C.
Series [2] has the same target. The experiment in a line: crystal structure; MOC1 with 1 mM MgCl2 mixed with Holliday junction DNA (9-bp arms) at a molar ratio of 1:1.2, co-crystallised.
In a further series the target is T1, NtMOC1 D116A (Nicotiana tabacum, UniProt A0A1S4BMC2 108-275, D116A).
T1 sequence: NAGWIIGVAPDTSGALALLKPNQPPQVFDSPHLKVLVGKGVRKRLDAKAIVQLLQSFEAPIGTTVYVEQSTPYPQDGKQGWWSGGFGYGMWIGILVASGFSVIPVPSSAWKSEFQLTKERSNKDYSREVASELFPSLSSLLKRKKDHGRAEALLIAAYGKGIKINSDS
Nature of the series: EMSA; 5 mM EDTA; EMSA: 50 mM Tris-HCl pH 8.0, 1 mM DTT, 5 mM EDTA, 200 ng/ml heparin (so in the source), 10% glycerol, 25 C, 30 min; HJ 250 nM, protein 0-1000 nM; 6% native PAGE, no MgCl2. The note with it: protein: recombinant; tags: 6xHis N-term, removed (DrICE); chain copies: 2; label: none (GelRed stain); four-way junction of 4 strands, 28 nt each, 2-bp homologous core.

For a further series, the target named is T2, NtMOC1 D253A (Nicotiana tabacum, UniProt A0A1S4BMC2 108-275, D253A).
T2 sequence: T1 sequence with A9D, D146A
The description is as above. The note with it: protein: recombinant; tags: 6xHis N-term, removed (DrICE); chain copies: 2; label: none (GelRed stain); four-way junction of 4 strands, 28 nt each, 2-bp homologous core.

For the next series, the target named is T3, NtMOC1 E258A (Nicotiana tabacum, UniProt A0A1S4BMC2 108-275, E258A).
T3 sequence: T1 sequence with A9D, E151A
The series is described as above. Particulars: protein: recombinant; tags: 6xHis N-term, removed (DrICE); chain copies: 2; label: none (GelRed stain); four-way junction of 4 strands, 28 nt each, 2-bp homologous core.

Another series concerns the target T4, NtMOC1 E175A (Nicotiana tabacum, UniProt A0A1S4BMC2 108-275, E175A).
T4 sequence: T1 sequence with A9D, E68A
The description is as above. The note with it: protein: recombinant; tags: 6xHis N-term, removed (DrICE); chain copies: 2; label: none (GelRed stain); four-way junction of 4 strands, 28 nt each, 2-bp homologous core.

The target in a further series is T5, NtMOC1 D118A (Nicotiana tabacum, UniProt A0A1S4BMC2 108-275, D118A).
T5 sequence: T1 sequence with A9D, D11A
The series is described as above. Particulars: protein: recombinant; tags: 6xHis N-term, removed (DrICE); chain copies: 2; label: none (GelRed stain); four-way junction of 4 strands, 28 nt each, 2-bp homologous core.

A further series addresses T6, NtMOC1 Y180A (Nicotiana tabacum, UniProt A0A1S4BMC2 108-275, Y180A).
T6 sequence: T1 sequence with A9D, Y73A
Nature of the series: EMSA; 5 mM EDTA; little effect; EMSA: 50 mM Tris-HCl pH 8.0, 1 mM DTT, 5 mM EDTA, 200 ng/ml heparin (so in the source), 10% glycerol, 25 C, 30 min; HJ 250 nM, protein 0-1000 nM; 6% native PAGE, no MgCl2. The note with it: protein: recombinant; tags: 6xHis N-term, removed (DrICE); chain copies: 2; label: none (GelRed stain); four-way junction of 4 strands, 28 nt each, 2-bp homologous core. For orientation: Mobility shift assays separate free from complexed probe on a gel.

Broadly, the stoichiometry N is the number of molecules, sites or subunits per partner or assembly. Take “NtMOC1 (N108-S275, I112V/Q162K/E235Q/E239Q) (domain or fragment)”: the stoichiometry N in series [1] and in series [2] was 2 throughout.

B1: X2 (CCGG) HJ (structured_DNA)
DNA 1: GGGCAAAGATGTCCCTCTGTTGTAATCG
DNA 2: CCAGTGCCTTGCTGGGACATCTTTGCCC
DNA 3: TAGACAGCTCCATCCAGCAAGGCACTGG
DNA 4: CGATTACAACAGAGGATGGAGCTGTCTA
For the molecule B1, the binding result in the series with NtMOC1 D116A, with NtMOC1 D253A, in the series with NtMOC1 E258A, with NtMOC1 E175A, with NtMOC1 D118A and with NtMOC1 Y180A was “binds” each time.
